Assay results reported in article PMC7752791, “Dehydroquinate dehydratase/shikimate dehydrogenases involved in gallate biosynthesis of the aluminum-tolerant tree species Eucalyptus camaldulensis” (Planta, 2020).

B1: EcDQD/SDH1 (Eucalyptus camaldulensis) (protein)
chain: ASTGNVLLATSSAPHEMESGAVRKNSTLICVPVMADSVEEMVIQLDKAKSSGADLVEIRVDSLKNLSPHEDLKTLIKASALPTLFTYRPKWEGGQYDGDDKPRLETLRLAMELGADYIDVELKVASEFNASIQGRKPEKCKVIVSSHNYENTPSAEDLSNLVARIQAAGADIVKIATTALDITDVERMFHITVHSQVSSVPVIGMVMGERGLISRVLCAKFGGFLTFGTLESGVVSAPGQPTIKDLLDLYNFRSIGPDTKVFGIIGKPVGHSKSPLLYNQAFKSAGFDGVFLHLLVDDVASFLQTYSSTDFAGFSCTIPHKEAAVKCCDEVDPVAKSIGAVNCIIRRQSDAKLFGYNTDYVGAISAIEDGLRGSQNGNSAGASPLNGKLFVVIGAGGAGKALGYGAKEKGARVVIANRTYDRARELAETIGGDALSLADLENFHPEDGMILANTTSIGMQPKVDETPIPKHALKHYSLVFDAVYTPKITRLLKEAEECGATIVSGLEMFIGQAYGQYERYTGLPAPKELFRKIMSKY
notes: genome locus by order of listing EcC055014.20
B2: EcDQD/SDH4a (EcQDHa) (Eucalyptus camaldulensis) (protein)
chain: GSLSLSSVGLTMVCAPVMGESVDQVVEEMHKAKAQGADVVEVRLDCIKQFQAHQDLEIILKSKPLPVIIVYRPKCEGGLYEGDETARLEALRSALKLGADYVDFELKVAAELMSKQNKLHCGGTKVIVSCFLDGVTPSKEELSNLATHMKATGADIIKIVTSASNITELAGLFHLLSYSQMPVVAYAVGERGLISQLLSPKFGSTLVYGSIEGMAVPGLPTLESLRKTYKVEHINSDTTVFGLISKPVGHSKGPILHNPTLRHMNFNGLYVPMFVDNLKEFFEVYSTPDFAGFSVGFPYKEAVIQFCDEVHPLAQTIGAVNTIVRRPSDGKLIGYNTDCEASVTAMEDALQECRCINGEKSLVSPLAGKEFVLVGAGGAGRALAFGAKTRGARIIIFDIDFERAKMLAHAVSGEARPFGDLPYFQPEKGSILANATPIGMHPNKDRIPVSEASLGVFQLVFDAVYTPRKTTLLKEAEAAGAITVSGVEMFLRQAIGQFNLFTGGEAPKEFMREIVLAKF
B3: EcDQD/SDH2 (Eucalyptus camaldulensis) (protein)
chain: TLSSIPLTAADLQIPAGGRRNSTLLCAPVMGESVDQMLGQIRAAKEQGADLVEVRLDFLKSFSPKQDLEILLKQSALPTLVTYRPKWEGGQYEGDDSQRLDALRLALELGADYVDVELQVAQEFFSSIQGKKPEKAKIIVSSHNYQNTPSSEELGNLVAKIQATGADIVKIATTALDISDCPRIFEVLAHSQVPTIAIAMGERGLISRILAAKFGGYLTFGAIEAGVVSAPGQPSIKDLLDLYNLRQLGPDTKVHGVIGKPIGHSKSPHLYNAAFKSVNFNGIYLPLLVDNVANFINAYSSPDFVGYSYTIPHKEDGLRCCDEVDPIAKAIGAISQMIRRPTDGKMIGYNVDYLGAIAAIEEALRASNGASPTTTSPLAGKLFVVIGAGGAGKALAYGAMEKGARVVVANRTYEKAKELASKVGGQAITLAELENFHPEDGMVLANTTSVGMKPNVDLTPLPKNALSRYCLVFDAIYTPKLTRLLREAQEVGAIPVYGTEMFINQAFVQFERFTGYPAPKQLIRDTLVKNS
notes: genome locus by order of listing EcC035206.10
B4: EcDQD/SDH3 (Eucalyptus camaldulensis) (protein)
chain: GSVPFTTSDLQTSTSGFRSSPTLLCTPLMGTTVDQMLIEMRKAKEIGADLVEIRLDCLRNFNPHQDLQILIKQSPLPTLVTYRPVWEGGQYEGDESKRQDALRLAMQLGAHYIDVELEVAHDFNSSILGKKPDNFKIIVSSHNFHNTPSAEAIGNLVARIQATGADIAKIATTALDITDCARIFQITVHSQIPIIGIVMGERGLISRILSPKFGGYLTYGALEAGAISAPGQPTAKDLLDLYNFRLIRPDTKVYGIIGKPVGHSKSPLLFNASYKSVGLNAVYLHFLVDDVEKFFNTYSAVDFASGCSCTIPHKEAALKCMDEIDPIAKKIGAINNIVRRPDGTLTAFNTDYIGAISAIEDGLRGLNGVSSGASPLAGKLFVVLGAGGAGKSLAYGAAQKGARVVVANRTFERAKELADKVGGQAMTLAEVENFHPEEGMVLANTTSVGMKPKIDETPLAKHALKHYCLVFDAIYTPKDTRLLREARETGAVIVYGTEMLIRQGFEQYKNFTGLPAPEELFRTLMEKHA
notes: genome locus by order of listing EcC054875.120

How the values were obtained:
Assay type in all cases: biochemical, Eucalyptus camaldulensis
[1] = substrate: O=C1C[C@@](O)(C(=O)O)C[C@@H](O)[C@@H]1O; experiment: HPLC of 3-DHS formed, Michaelis-Menten fit; settings: DQD activity, no cofactor, pH 7, 30 °C
Source text: HPLC of 3-DHS formed, Michaelis-Menten fit on EcDQD/SDH1

purified protein [2] = substrate: NC(=O)c1ccc[n+]([C@@H]2O[C@H](COP(=O)(O)OP(=O)(O)OC[C@H]3O[C@@H](n4cnc5c(N)ncnc54)[C@H](OP(=O)(O)O)[C@@H]3O)[C@@H](O)[C@H]2O)c1; experiment: purified protein; settings: shikimate oxidation, pH 9, 30 °C, varied: cofactor
purified protein [3] = substrate: O=C(O)C1=C[C@@H](O)[C@@H](O)[C@H](O)C1; experiment: purified protein; settings: shikimate oxidation with NADP+, pH 9, 30 °C
purified protein [4] = substrate: O=C(O)C1=CC(=O)[C@@H](O)[C@H](O)C1; experiment: purified protein; settings: shikimate formation with NADPH
purified protein [5] = substrate: NC(=O)C1=CN([C@@H]2O[C@H](COP(=O)(O)OP(=O)(O)OC[C@H]3O[C@@H](n4cnc5c(N)ncnc54)[C@H](OP(=O)(O)O)[C@@H]3O)[C@@H](O)[C@H]2O)C=CC1; experiment: purified protein; settings: shikimate formation from 3-DHS, varied: cofactor
purified protein [6] = substrate: O=C1C[C@@](O)(C(=O)O)C[C@@H](O)[C@@H]1O; experiment: purified protein; settings: quinate formation with NADH, pH 7.5, 30 °C
purified protein [7] = substrate: NC(=O)c1ccc[n+]([C@@H]2O[C@H](COP(=O)(O)OP(=O)(O)OC[C@H]3O[C@@H](n4cnc5c(N)ncnc54)[C@H](O)[C@@H]3O)[C@@H](O)[C@H]2O)c1; experiment: purified protein; settings: quinate oxidation, pH 9, 30 °C, varied: cofactor
purified protein [8] = substrate: NC(=O)C1=CN([C@@H]2O[C@H](COP(=O)(O)OP(=O)(O)OC[C@H]3O[C@@H](n4cnc5c(N)ncnc54)[C@H](O)[C@@H]3O)[C@@H](O)[C@H]2O)C=CC1; experiment: purified protein; settings: quinate formation from 3-DHQ, pH 7.5, 30 °C, varied: cofactor
purified protein [9] = substrate: O=C(O)[C@]1(O)C[C@@H](O)[C@@H](O)[C@H](O)C1; experiment: purified protein; settings: quinate oxidation with NAD+, pH 9, 30 °C
[10] = substrate: O=C1C[C@@](O)(C(=O)O)C[C@@H](O)[C@@H]1O; experiment: HPLC of 3-DHS formed, Michaelis-Menten fit; settings: DQD activity, no cofactor, pH 7, 30 °C; remark: listed apart in the source
Source text: HPLC of 3-DHS formed, Michaelis-Menten fit on EcDQD/SDH2

[11] = substrate: O=C1C[C@@](O)(C(=O)O)C[C@@H](O)[C@@H]1O; experiment: HPLC of 3-DHS formed, Michaelis-Menten fit; settings: DQD activity, no cofactor, pH 7, 30 °C; remark: listed apart in the source
Source text: HPLC of 3-DHS formed, Michaelis-Menten fit on EcDQD/SDH3

Row | Protein | Km (purified protein [2]) [µM] | Vmax (purified protein [2]) [µmol/min/mg] | kcat (purified protein [2]) [s⁻¹] | kcat/Km (purified protein [2]) [M⁻¹ s⁻¹] | Km (purified protein [3]) [µM] | Vmax (purified protein [3]) [µmol/min/mg] | kcat (purified protein [3]) [s⁻¹] | kcat/Km (purified protein [3]) [M⁻¹ s⁻¹] | Km (purified protein [4]; pH 6.5, 30 °C) [µM] | Vmax (purified protein [4]; pH 6.5, 30 °C) [µmol/min/mg] | kcat (purified protein [4]; pH 6.5, 30 °C) [s⁻¹] | kcat/Km (purified protein [4]; pH 6.5, 30 °C) [M⁻¹ s⁻¹] | Km (purified protein [5]; pH 6.5, 30 °C) [µM] | Vmax (purified protein [5]; pH 6.5, 30 °C) [µmol/min/mg] | kcat (purified protein [5]; pH 6.5, 30 °C) [s⁻¹] | kcat/Km (purified protein [5]; pH 6.5, 30 °C) [M⁻¹ s⁻¹] | further results
1 | B1 | 56.5 ± 2.3 | 822 ± 6 | 792 ± 6 | 1.4e+07 | 32.6 ± 1.9 | 780 ± 6 | 755 ± 6 | 2.32e+07 | 381 ± 34 | 318 | 307 ± 5 | 805000 | 49.5 ± 3.6 | 404 | 389 ± 9 | 7.86e+06 | Km [1]: 449 ± 22 µM; Vmax [1]: 63 µmol/min/mg; kcat [1]: 60.4 ± 0.7 s⁻¹; kcat/Km [1]: 135000 M⁻¹ s⁻¹
2 | B2 | – | – | – | – | – | – | – | – | – | – | – | – | – | – | – | – | Km (purified protein [6]): 1400 ± 120 µM; Vmax (purified protein [6]): 300 µmol/min/mg; kcat (purified protein [6]): 281 ± 7 s⁻¹; kcat/Km (purified protein [6]): 201000 M⁻¹ s⁻¹; Km (purified protein [7]): 53.7 ± 1.7 µM; Vmax (purified protein [7]): 148 µmol/min/mg; kcat (purified protein [7]): 139 ± 1 s⁻¹; kcat/Km (purified protein [7]): 2.59e+06 M⁻¹ s⁻¹; Km (purified protein [8]): 102 ± 9 µM; Vmax (purified protein [8]): 318 µmol/min/mg; kcat (purified protein [8]): 298 ± 8 s⁻¹; kcat/Km (purified protein [8]): 2.92e+06 M⁻¹ s⁻¹; Km (purified protein [9]): 164 ± 10 µM; Vmax (purified protein [9]): 135 µmol/min/mg; kcat (purified protein [9]): 127 ± 2 s⁻¹; kcat/Km (purified protein [9]): 771000 M⁻¹ s⁻¹
3 | B3 | 65.2 ± 2.7 | 141 | 135 ± 1 | 2.07e+06 | 2050 ± 200 | 153 | 146 ± 4 | 71300 | – | – | – | – | – | – | – | – | Km [10]: 322 ± 13 µM; Vmax [10]: 32.4 µmol/min/mg; kcat [10]: 30.9 ± 0.3 s⁻¹; kcat/Km [10]: 96200 M⁻¹ s⁻¹; Km (purified protein [4]; pH 8.5, 30 °C): 8830 ± 1210 µM; Vmax (purified protein [4]; pH 8.5, 30 °C): 49.3 µmol/min/mg; kcat (purified protein [4]; pH 8.5, 30 °C): 47 ± 3.3 s⁻¹; kcat/Km (purified protein [4]; pH 8.5, 30 °C): 5320 M⁻¹ s⁻¹; Km (purified protein [5]; pH 8.5, 30 °C): 4.38 ± 0.43 µM; Vmax (purified protein [5]; pH 8.5, 30 °C): 28.9 µmol/min/mg; kcat (purified protein [5]; pH 8.5, 30 °C): 27.6 ± 0.5 s⁻¹; kcat/Km (purified protein [5]; pH 8.5, 30 °C): 6.3e+06 M⁻¹ s⁻¹
4 | B4 | 41.5 ± 2.1 | 73.2 | 70.2 ± 0.6 | 1.69e+06 | 3640 ± 360 | 84 | 80.7 ± 2.9 | 22200 | 878 ± 106 | 60 | 57.6 ± 1.7 | 65600 | 23.1 ± 1.4 | 77.4 | 74.1 ± 1.2 | 3.21e+06 | Km [11]: 882 ± 42 µM; Vmax [11]: 3.83 µmol/min/mg; kcat [11]: 3.67 ± 0.05 s⁻¹; kcat/Km [11]: 4160 M⁻¹ s⁻¹
